Data as given in article PMC9045250.

Molecular target: no. 14 short peptide of the CD2V extracellular region (147-161) (African swine fever virus (China/2018/AnhuiXCGQ))
Assay: ELISA
Details: remark: other sources report otherwise

B1: monoclonal antibody 18A3 against CD2V (antibody, V domains shown)
VH: MVKPGASVKISCKASGYSFTSYYIHWVKQRPGQGLEWIGWIFPGSGNTKYNEKFKGKATLTADTSSSTAYMQLSSLTSEDSAVYFCAQTGRVFAYWGQGTTVTVSSK
VL: MTQSPSSLSASLGERVSLTCRASQEISGYLSWLQQKPDGTIKRLIYAASTLDSGVPKRFSGSRSGSDYSLTISSLESEDFADYYCLQYASYPWTFGGGTKLESNGE
In the case of B1, the OD450 is reported as > 1 OD450.

B2: monoclonal antibody 13G11 against CD2V (antibody, V domains shown)
VH: MIMVQSQESGPDLVKPSQSLSLTCTVTGYSITSGYSWHWIRQFPGNKLEWMGYIHYSGVTNYNPSLKSRISITRDTSKNQFFLQLNSVTTEDTATYYCARAPLYYGNYVWFSYWGQGTTVTVSSK
VL: MTCDIELTQSPASLSASVGETVTITCRASGNIHNYLAWYQQKQGKSPQLLVYNAKTLADGVPSRFSGSGSGSQYSLKINSLQPEDFGSYYCQHFWSTPWTFGGGTKLENQTDK
For B2, the OD450 was > 1 OD450.
